From US20110229560A1 (published 2011)

Columns and labels:
[1] = molecular target: T1, HA-tagged NLRC5 (human NLRC5, full length) (human, UniProt Q86WI3 1-1866); assay: co-IP (anti-HA beads) and Western blot (anti-Flag), transfected 293T cells
T1 construct: Expressed from pcDNA3.1 with an HA tag in transfected 293T cells; used in lysates for co-immunoprecipitation; General statements about NLRC5 in overexpression experiments are put on this molecule; also called HA-NLRC5

[2] = molecular target: T1, HA-tagged NLRC5 (human NLRC5, full …); assay: co-IP (anti-Flag or anti-HA beads) and Western blot, FIG. 15
[3] = molecular target: T2, endogenous mouse NLRC5 (RAW264.7 cells) (mouse, UniProt C3VPR6 1-1915, limits assumed); assay: IP of RAW264.7 lysate with anti-mNLRC5, Western blot with anti-NEMO
T2 construct: Endogenous protein; also called mNLRC5; endogenous mNLRC5
T2 sequence (C3VPR6 whole entry G881R): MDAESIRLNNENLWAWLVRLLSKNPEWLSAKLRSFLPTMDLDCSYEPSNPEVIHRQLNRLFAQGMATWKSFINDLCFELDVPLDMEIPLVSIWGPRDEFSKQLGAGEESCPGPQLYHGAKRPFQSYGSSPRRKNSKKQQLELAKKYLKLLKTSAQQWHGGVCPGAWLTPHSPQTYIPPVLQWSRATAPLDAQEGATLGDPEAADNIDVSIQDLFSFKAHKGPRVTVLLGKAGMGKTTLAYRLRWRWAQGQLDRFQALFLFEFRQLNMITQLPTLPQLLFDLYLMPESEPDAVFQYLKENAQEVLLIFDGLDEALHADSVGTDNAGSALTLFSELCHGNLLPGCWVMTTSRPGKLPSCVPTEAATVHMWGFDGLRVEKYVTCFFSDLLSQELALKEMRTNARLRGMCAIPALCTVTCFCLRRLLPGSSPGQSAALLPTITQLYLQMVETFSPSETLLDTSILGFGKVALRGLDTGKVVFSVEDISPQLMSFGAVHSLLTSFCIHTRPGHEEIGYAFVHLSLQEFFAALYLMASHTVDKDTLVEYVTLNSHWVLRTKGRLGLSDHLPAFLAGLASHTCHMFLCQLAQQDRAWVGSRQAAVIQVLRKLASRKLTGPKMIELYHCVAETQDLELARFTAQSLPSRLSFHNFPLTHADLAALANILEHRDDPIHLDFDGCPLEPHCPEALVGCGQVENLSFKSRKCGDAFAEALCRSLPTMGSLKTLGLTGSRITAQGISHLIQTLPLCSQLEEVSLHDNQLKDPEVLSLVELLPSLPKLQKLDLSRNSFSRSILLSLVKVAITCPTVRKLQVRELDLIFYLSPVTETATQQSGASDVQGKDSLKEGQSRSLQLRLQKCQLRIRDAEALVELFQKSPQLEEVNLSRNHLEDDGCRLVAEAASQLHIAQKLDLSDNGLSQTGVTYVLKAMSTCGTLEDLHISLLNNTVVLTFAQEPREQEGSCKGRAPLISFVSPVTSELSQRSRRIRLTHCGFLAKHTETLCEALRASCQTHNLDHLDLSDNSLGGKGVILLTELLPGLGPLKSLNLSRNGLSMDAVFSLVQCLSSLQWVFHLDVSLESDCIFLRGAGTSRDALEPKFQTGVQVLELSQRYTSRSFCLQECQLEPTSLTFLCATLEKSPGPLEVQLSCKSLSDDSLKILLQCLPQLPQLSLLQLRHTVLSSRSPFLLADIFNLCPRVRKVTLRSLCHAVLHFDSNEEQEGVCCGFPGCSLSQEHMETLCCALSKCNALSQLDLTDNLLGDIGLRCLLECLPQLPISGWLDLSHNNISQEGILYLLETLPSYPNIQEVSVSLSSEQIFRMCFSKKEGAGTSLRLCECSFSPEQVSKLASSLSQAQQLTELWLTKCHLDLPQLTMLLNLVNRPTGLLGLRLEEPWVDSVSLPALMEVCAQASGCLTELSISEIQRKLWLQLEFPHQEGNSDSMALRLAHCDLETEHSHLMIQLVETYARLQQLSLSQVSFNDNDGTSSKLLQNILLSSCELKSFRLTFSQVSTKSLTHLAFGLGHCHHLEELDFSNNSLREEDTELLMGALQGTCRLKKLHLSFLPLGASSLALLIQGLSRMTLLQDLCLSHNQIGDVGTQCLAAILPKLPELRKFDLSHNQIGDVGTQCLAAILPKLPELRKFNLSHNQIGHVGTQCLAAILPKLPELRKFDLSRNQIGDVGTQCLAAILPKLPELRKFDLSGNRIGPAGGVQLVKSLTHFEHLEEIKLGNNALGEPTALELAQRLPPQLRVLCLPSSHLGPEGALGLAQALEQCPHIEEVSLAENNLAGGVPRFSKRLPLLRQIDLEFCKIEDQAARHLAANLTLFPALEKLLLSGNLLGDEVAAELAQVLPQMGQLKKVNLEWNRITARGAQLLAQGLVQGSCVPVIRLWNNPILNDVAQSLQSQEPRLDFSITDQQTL

T1 sequence (Q86WI3 whole entry N907D): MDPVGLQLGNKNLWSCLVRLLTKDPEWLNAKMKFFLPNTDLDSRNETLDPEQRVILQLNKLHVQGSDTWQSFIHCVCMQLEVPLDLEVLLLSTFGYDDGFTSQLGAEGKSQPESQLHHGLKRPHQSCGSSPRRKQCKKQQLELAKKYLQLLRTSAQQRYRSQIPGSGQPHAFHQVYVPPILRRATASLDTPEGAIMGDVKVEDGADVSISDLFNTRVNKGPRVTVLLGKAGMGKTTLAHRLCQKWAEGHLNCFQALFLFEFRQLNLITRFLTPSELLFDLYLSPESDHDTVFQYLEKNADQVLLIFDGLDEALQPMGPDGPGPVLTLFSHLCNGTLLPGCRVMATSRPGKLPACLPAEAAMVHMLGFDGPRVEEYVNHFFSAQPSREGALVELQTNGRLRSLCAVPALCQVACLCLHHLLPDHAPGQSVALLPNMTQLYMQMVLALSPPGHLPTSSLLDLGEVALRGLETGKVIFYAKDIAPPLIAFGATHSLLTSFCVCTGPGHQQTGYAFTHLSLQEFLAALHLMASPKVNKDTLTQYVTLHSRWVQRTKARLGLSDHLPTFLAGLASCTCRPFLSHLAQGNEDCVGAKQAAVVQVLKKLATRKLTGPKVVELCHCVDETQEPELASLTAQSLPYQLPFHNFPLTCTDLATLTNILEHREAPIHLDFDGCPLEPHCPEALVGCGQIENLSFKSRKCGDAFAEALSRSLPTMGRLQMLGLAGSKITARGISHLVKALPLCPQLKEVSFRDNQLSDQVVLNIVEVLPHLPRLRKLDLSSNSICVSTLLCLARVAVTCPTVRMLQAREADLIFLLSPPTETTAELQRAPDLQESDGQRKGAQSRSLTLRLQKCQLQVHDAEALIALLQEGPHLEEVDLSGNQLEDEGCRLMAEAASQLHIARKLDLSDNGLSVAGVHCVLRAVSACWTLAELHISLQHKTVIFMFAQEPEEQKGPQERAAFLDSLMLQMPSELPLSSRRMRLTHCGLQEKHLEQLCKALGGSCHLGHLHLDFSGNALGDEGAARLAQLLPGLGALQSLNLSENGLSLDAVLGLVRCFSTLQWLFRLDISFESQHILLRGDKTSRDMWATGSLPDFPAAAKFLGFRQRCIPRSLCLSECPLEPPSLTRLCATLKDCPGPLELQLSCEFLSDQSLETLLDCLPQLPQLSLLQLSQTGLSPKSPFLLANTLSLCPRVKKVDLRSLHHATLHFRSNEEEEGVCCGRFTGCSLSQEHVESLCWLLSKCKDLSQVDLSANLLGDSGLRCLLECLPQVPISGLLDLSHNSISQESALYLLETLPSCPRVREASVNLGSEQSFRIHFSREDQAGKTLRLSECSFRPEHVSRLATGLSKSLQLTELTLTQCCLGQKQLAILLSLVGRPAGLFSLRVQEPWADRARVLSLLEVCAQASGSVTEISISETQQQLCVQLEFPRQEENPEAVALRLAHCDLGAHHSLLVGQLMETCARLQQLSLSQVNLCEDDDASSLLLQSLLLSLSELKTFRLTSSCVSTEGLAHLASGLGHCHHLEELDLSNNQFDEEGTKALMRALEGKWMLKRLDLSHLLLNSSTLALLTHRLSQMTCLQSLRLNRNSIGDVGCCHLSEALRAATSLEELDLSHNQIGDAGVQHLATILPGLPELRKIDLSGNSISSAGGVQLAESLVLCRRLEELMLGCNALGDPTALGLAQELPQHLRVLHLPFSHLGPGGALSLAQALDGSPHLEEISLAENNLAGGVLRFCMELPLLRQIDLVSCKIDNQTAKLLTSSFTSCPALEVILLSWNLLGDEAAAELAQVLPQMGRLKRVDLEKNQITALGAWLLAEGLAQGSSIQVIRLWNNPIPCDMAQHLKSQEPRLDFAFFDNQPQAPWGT

Row | binding result [1] | binding result [2] | Binder | other results
1 | no binding | – | Flag-MAVS (other, UniProt Q7Z434 1-540, looked up, not shown: small tags and cut ends) MPFAEDKTYKYICRNFSNFCNVDVVEILPYLPCLTARDQDRLRATCTLSGNRDTLWHLFNTLQRRPGWVEYFIAALRGCELVDLADEVASVYQSYQPRTSDRPPDPLEPPSLPAERPGPPTPAAAHSIPYNSCREKEPSYPMPVQETQAPESPGENSEQALQTLSPRAIPRNPDGGPLESSSDLAALSPLTSSGHQEQDTELGSTHTAGATSSLTPSRGPVSPSVSFQPLARSTPRASRLPGPTGSVVSTGTSFSSSSPGLASAGAAEGKQGAESDQAEPIICSSGAEAPANSLPSKVPTTLMPVNTVALKVPANPASVSTVPSKLPTSSKPPGAVPSNALTNPAPSKLPINSTRAGMVPSKVPTSMVLTKVSASTVPTDGSSRNEETPAAPTPAGATGGSSAWLDSSSENRGLGSELSKPGVLASQVDSPFSGCFEDLAISASTSLGMGPCHGPEENEYKSEGTFGIHVAENPSIQLLEGNPGPPADPDGGPRPQADRKFQEREVPCHRPSPGALWLQVAVTGVLVVTLLVVLYRRRLH | –
2 | – | no binding | TRAF3 (expressed in 293T cells) (other, UniProt Q13114 1-568, looked up, not shown: small tags and cut ends) MESSKKMDSPGALQTNPPLKLHTDRSAGTPVFVPEQGGYKEKFVKTVEDKYKCEKCHLVLCSPKQTECGHRFCESCMAALLSSSSPKCTACQESIVKDKVFKDNCCKREILALQIYCRNESRGCAEQLMLGHLLVHLKNDCHFEELPCVRPDCKEKVLRKDLRDHVEKACKYREATCSHCKSQVPMIALQKHEDTDCPCVVVSCPHKCSVQTLLRSELSAHLSECVNAPSTCSFKRYGCVFQGTNQQIKAHEASSAVQHVNLLKEWSNSLEKKVSLLQNESVEKNKSIQSLHNQICSFEIEIERQKEMLRNNESKILHLQRVIDSQAEKLKELDKEIRPFRQNWEEADSMKSSVESLQNRVTELESVDKSAGQVARNTGLLESQLSRHDQMLSVHDIRLADMDLRFQVLETASYNGVLIWKIRDYKRRKQEAVMGKTLSLYSQPFYTGYFGYKMCARVYLNGDGMGKGTHLSLFFVIMRGEYDALLPWPFKQKVTLMLMDQGSSRRHLGDAFKPDPNSSSFKKPTGEMNIASGCPVFVAQTVLENGTYIKDDTIFIKVIVDTSDLPDP | –
3 | – | no binding | IRF3 (expressed in 293T cells) (other, UniProt Q14653 1-427, looked up, not shown: small tags and cut ends) MGTPKPRILPWLVSQLDLGQLEGVAWVNKSRTRFRIPWKHGLRQDAQQEDFGIFQAWAEATGAYVPGRDKPDLPTWKRNFRSALNRKEGLRLAEDRSKDPHDPHKIYEFVNSGVGDFSQPDTSPDTNGGGSTSDTQEDILDELLGNMVLAPLPDPGPPSLAVAPEPCPQPLRSPSLDNPTPFPNLGPSENPLKRLLVPGEEWEFEVTAFYRGRQVFQQTISCPEGLRLVGSEVGDRTLPGWPVTLPDPGMSLTDRGVMSYVRHVLSCLGGGLALWRAGQWLWAQRLGHCHTYWAVSEELLPNSGHGPDGEVPKDKEGGVFDLGPFIVDLITFTEGSGRSPRYALWFCVGESWPQDQPWTKRLVMVKVVPTCLRALVEMARVGGASSLENTVDLHISNSHPLSLTSDQYKAYLQDLVEGMDFQGPGES | –
4 | – | – | endogenous NEMO (RAW264.7 cells) (other, mouse, UniProt O88522 1-412, looked up) MNKHPWKNQLSEMVQPSGGPAEDQDMLGEESSLGKPAMLHLPSEQGTPETLQRCLEENQELRDAIRQSNQMLRERCEELLHFQVSQREEKEFLMCKFQEARKLVERLSLEKLDLRSQREQALKELEQLKKCQQQMAEDKASVKAQVTSLLGELQESQSRLEAATKDRQALEGRIRAVSEQVRQLESEREVLQQQHSVQVDQLRMQNQSVEAALRMERQAASEEKRKLAQLQAAYHQLFQDYDSHIKSSKGMQLEDLRQQLQQAEEALVAKQELIDKLKEEAEQHKIVMETVPVLKAQADIYKADFQAERHAREKLVEKKEYLQEQLEQLQREFNKLKVGCHESARIEDMRKRHVETPQPPLLPAPAHHSFHLALSNQRRSPPEEPPDFCCPKCQYQAPDMDTLQIHVMECIE | binding result [3]: no binding
5 | – | no binding | TBK1 (expressed in 293T cells) (enzyme, UniProt Q9UHD2 1-729, looked up, not shown: small tags and cut ends) MQSTSNHLWLLSDILGQGATANVFRGRHKKTGDLFAIKVFNNISFLRPVDVQMREFEVLKKLNHKNIVKLFAIEEETTTRHKVLIMEFCPCGSLYTVLEEPSNAYGLPESEFLIVLRDVVGGMNHLRENGIVHRDIKPGNIMRVIGEDGQSVYKLTDFGAARELEDDEQFVSLYGTEEYLHPDMYERAVLRKDHQKKYGATVDLWSIGVTFYHAATGSLPFRPFEGPRRNKEVMYKIITGKPSGAISGVQKAENGPIDWSGDMPVSCSLSRGLQVLLTPVLANILEADQEKCWGFDQFFAETSDILHRMVIHVFSLQQMTAHKIYIHSYNTATIFHELVYKQTKIISSNQELIYEGRRLVLEPGRLAQHFPKTTEENPIFVVSREPLNTIGLIYEKISLPKVHPRYDLDGDASMAKAITGVVCYACRIASTLLLYQELMRKGIRWLIELIKDDYNETVHKKTEVVITLDFCIRNIEKTVKVYEKLMKINLEAAELGEISDIHTKLLRLSSSQGTIETSLQDIDSRLSPGGSLADAWAHQEGTHPKDRNVEKLQVLLNCMTEIYYQFKKDKAERRLAYNEEQIHKFDKQKLYYHATKAMTHFTDECVKKYEAFLNKSEEWIRKMLHLRKQLLSLTNQCFDIEEEVSKYQEYTNELQETLPQKMFTASSGIKHTMTPIYPSSNTLVEMTLGMKKLKEEMEGVVKELAENNHILERFGSLTMDGGLRNVDCL | –
6 | no binding | – | IKKi (expressed in 293T cells, detected with anti-Flag) (enzyme, UniProt Q14164 1-716, looked up, not shown: small tags and cut ends) MQSTANYLWHTDDLLGQGATASVYKARNKKSGELVAVKVFNTTSYLRPREVQVREFEVLRKLNHQNIVKLFAVEETGGSRQKVLVMEYCSSGSLLSVLESPENAFGLPEDEFLVVLRCVVAGMNHLRENGIVHRDIKPGNIMRLVGEEGQSIYKLTDFGAARELDDDEKFVSVYGTEEYLHPDMYERAVLRKPQQKAFGVTVDLWSIGVTLYHAATGSLPFIPFGGPRRNKEIMYRITTEKPAGAIAGAQRRENGPLEWSYTLPITCQLSLGLQSQLVPILANILEVEQAKCWGFDQFFAETSDILQRVVVHVFSLSQAVLHHIYIHAHNTIAIFQEAVHKQTSVAPRHQEYLFEGHLCVLEPSVSAQHIAHTTASSPLTLFSTAIPKGLAFRDPALDVPKFVPKVDLQADYNTAKGVLGAGYQALRLARALLDGQELMFRGLHWVMEVLQATCRRTLEVARTSLLYLSSSLGTERFSSVAGTPEIQELKAAAELRSRLRTLAEVLSRCSQNITETQESLSSLNRELVKSRDQVHEDRSIQQIQCCLDKMNFIYKQFKKSRMRPGLGYNEEQIHKLDKVNFSHLAKRLLQVFQEECVQKYQASLVTHGKRMRVVHETRNHLRLVGCSVAACNTEAQGVQESLSKLLEELSHQLLQDRAKGAQASPPPIAPYPSPTRKDLLLHMQELCEGMKLLASDLLDNNRIIERLNRVPAPPDV | –
